Test results reported in patent US20240391961A1 (OREGON STATE UNIVERSITY, published 2024).

T1: 14-3-3ζ nhpSer58 with a FLAG tag at its N-terminus (Homo sapiens (Human), UniProt P63104 1-245)
T1 sequence: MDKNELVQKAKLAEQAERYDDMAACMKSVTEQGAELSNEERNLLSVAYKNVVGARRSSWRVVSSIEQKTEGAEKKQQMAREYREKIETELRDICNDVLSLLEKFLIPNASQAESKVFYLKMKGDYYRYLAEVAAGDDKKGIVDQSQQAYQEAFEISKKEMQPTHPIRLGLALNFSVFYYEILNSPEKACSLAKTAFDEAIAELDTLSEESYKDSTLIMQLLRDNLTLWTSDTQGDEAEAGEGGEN

B1: 14-3-3ζ S58E (other)
chain: MDKNELVQKAKLAEQAERYDDMAACMKSVTEQGAELSNEERNLLSVAYKNVVGARRSEWRVVSSIEQKTEGAEKKQQMAREYREKIETELRDICNDVLSLLEKFLIPNASQAESKVFYLKMKGDYYRYLAEVAAGDDKKGIVDQSQQAYQEAFEISKKEMQPTHPIRLGLALNFSVFYYEILNSPEKACSLAKTAFDEAIAELDTLSEESYKDSTLIMQLLRDNLTLWTSDTQGDEAEAGEGGEN
notes: also called S58E phosphomimetic; 14-3-3ζ with glutamate at residue 58
B2: 14-3-3 protein beta/alpha [OS = Homo sapiens] (other, UniProt P31946 1-246, looked up)
chain: MTMDKSELVQKAKLAEQAERYDDMAAAMKAVTEQGHELSNEERNLLSVAYKNVVGARRSSWRVISSIEQKTERNEKKQQMGKEYREKIEAELQDICNDVLELLDKYLIPNATQPESKVFYLKMKGDYFRYLSEVASGDNKQTTVSNSQQAYQEAFEISKKEMQPTHPIRLGLALNFSVFYYEILNSPEKACSLAKTAFDEAIAELDTLNEESYKDSTLIMQLLRDNLTLWTSENQGDEGDAGEGEN
B3: 2-amino-3-ketobutyrate coenzyme A ligase, mitochondrial [OS = Homo sapiens] (other, UniProt O75600 22-419, looked up)
chain: SALAQLRGILEGELEGIRGAGTWKSERVITSRQGPHIRVDGVSGGILNFCANNYLGLSSHPEVIQAGLQALEEFGAGLSSVRFICGTQSIHKNLEAKIARFHQREDAILYPSCYDANAGLFEALLTPEDAVLSDELNHASIIDGIRLCKAHKYRYRHLDMADLEAKLQEAQKHRLRLVATDGAFSMDGDIAPLQEICCLASRYGALVFMDECHATGFLGPTGRGTDELLGVMDQVTIINSTLGKALGGASGGYTTGPGPLVSLLRQRARPYLFSNSLPPAVVGCASKALDLLMGSNTIVQSMAAKTQRFRSKMEAAGFTISGASHPICPVMLGDARLASRMADDMLKRGIFVIGFSYPVVPKGKARIRVQISAVHSEEDIDRCVEAFVEVGRLHGALP
B4: Atherin [OS = Homo sapiens] (other, UniProt Q6SPF0 1-538, looked up)
chain: MAGPPALPPPETAAAATTAAAASSSAASPHYQEWILDTIDSLRSRKARPDLERICRMVRRRHGPEPERTRAELEKLIQQRAVLRVSYKGSISYRNAARVQPPRRGATPPAPPRAPRGAPAAAAAAAPPPTPAPPPPPAPVAAAAPARAPRAAAAAATAPPSPGPAQPGPRAQRAAPLAAPPPAPAAPPAVAPPAGPRRAPPPAVAAREPPLPPPPQPPAPPQQQQPPPPQPQPPPEGGAVRAGGAARPVSLREVVRYLGGSGGAGGRLTRGRVQGLLEEEAAARGRLERTRLGALALPRGDRPGRAPPAASARPSRSKRGGEERVLEKEEEEDDDEDEDEEDDVSEGSEVPESDRPAGAQHHQLNGERGPQSAKERVKEWTPCGPHQGQDEGRGPAPGSGTRQVFSMAAMNKEGGTASVATGPDSPSPVPLPPGKPALPGADGTPFGCPPGRKEKPSDPVEWTVMDVVEYFTEAGFPEQATAFQEQEIDGKSLLLMQRTDVLTGLSIRLGPALKIYEHHIKVLQQGHFEDDDPDGFLG
B5: Transformer-2 protein homolog alpha [OS = Homo sapiens] (other, UniProt Q13595 2-282, looked up)
chain: SDVEENNFEGRESRSQSKSPTGTPARVKSESRSGSRSPSRVSKHSESHSRSRSKSRSRSRRHSHRRYTRSRSHSHSHRRRSRSRSYTPEYRRRRSRSHSPMSNRRRHTGSRANPDPNTCLGVFGLSLYTTERDLREVFSRYGPLSGVNVVYDQRTGRSRGFAFVYFERIDDSKEAMERANGMELDGRRIRVDYSITKRAHTPTPGIYMGRPTHSGGGGGGGGGGGGGGGGRRRDSYYDRGYDRGYDRYEDYDYRYRRRSPSPYYSRYRSRSRSRSYSPRRY
B6: 14-3-3 protein gamma [OS = Homo sapiens] (other, UniProt P61981 1-247, looked up)
chain: MVDREQLVQKARLAEQAERYDDMAAAMKNVTELNEPLSNEERNLLSVAYKNVVGARRSSWRVISSIEQKTSADGNEKKIEMVRAYREKIEKELEAVCQDVLSLLDNYLIKNCSETQYESKVFYLKMKGDYYRYLAEVATGEKRATVVESSEKAYSEAHEISKEHMQPTHPIRLGLALNYSVFYYEIQNAPEQACHLAKTAFDDAIAELDTLNEDSYKDSTLIMQLLRDNLTLWTSDQQDDDGGEGNN
B7: Cell division cycle 5-like protein [OS = Homo sapiens] (other, UniProt Q99459 1-802, looked up)
chain: MPRIMIKGGVWRNTEDEILKAAVMKYGKNQWSRIASLLHRKSAKQCKARWYEWLDPSIKKTEWSREEEEKLLHLAKLMPTQWRTIAPIIGRTAAQCLEHYEFLLDKAAQRDNEEETTDDPRKLKPGEIDPNPETKPARPDPIDMDEDELEMLSEARARLANTQGKKAKRKAREKQLEEARRLAALQKRRELRAAGIEIQKKRKRKRGVDYNAEIPFEKKPALGFYDTSEENYQALDADFRKLRQQDLDGELRSEKEGRDRKKDKQHLKRKKESDLPSAILQTSGVSEFTKKRSKLVLPAPQISDAELQEVVKVGQASEIARQTAEESGITNSASSTLLSEYNVTNNSVALRTPRTPASQDRILQEAQNLMALTNVDTPLKGGLNTPLHESDFSGVTPQRQVVQTPNTVLSTPFRTPSNGAEGLTPRSGTTPKPVINSTPGRTPLRDKLNINPEDGMADYSDPSYVKQMERESREHLRLGLLGLPAPKNDFEIVLPENAEKELEEREIDDTYIEDAADVDARKQAIRDAERVKEMKRMHKAVQKDLPRPSEVNETILRPLNVEPPLTDLQKSEELIKKEMITMLHYDLLHHPYEPSGNKKGKTVGFGTNNSEHITYLEHNPYEKFSKEELKKAQDVLVQEMEVVKQGMSHGELSSEAYNQVWEECYSQVLYLPGQSRYTRANLASKKDRIESLEKRLEINRGHMTTEAKRAAKMEKKMKILLGGYQSRAMGLMKQLNDLWDQIEQAHLELRTFEELKKHEDSAIPRRLECLKEDVQRQQEREKELQHRYADLLLEKETLKSKF
B8: 14-3-3 protein eta [OS = Homo sapiens] (other, UniProt Q04917 2-246, looked up)
chain: GDREQLLQRARLAEQAERYDDMASAMKAVTELNEPLSNEDRNLLSVAYKNVVGARRSSWRVISSIEQKTMADGNEKKLEKVKAYREKIEKELETVCNDVLSLLDKFLIKNCNDFQYESKVFYLKMKGDYYRYLAEVASGEKKNSVVEASEAAYKEAFEISKEQMQPTHPIRLGLALNFSVFYYEIQNAPEQACLLAKQAFDDAIAELDTLNEDSYKDSTLIMQLLRDNLTLWTSDQQDEEAGEGN
B9: Pre-mRNA-splicing factor SLU7 [OS = Homo sapiens] (other, UniProt O95391 2-586, looked up)
chain: SATVVDAVNAAPLSGSKEMSLEEPKKMTREDWRKKKELEEQRKLGNAPAEVDEEGKDINPHIPQYISSVPWYIDPSKRPTLKHQRPQPEKQKQFSSSGEWYKRGVKENSIITKYRKGACENCGAMTHKKKDCFERPRRVGAKFTGTNIAPDEHVQPQLMFDYDGKRDRWNGYNPEEHMKIVEEYAKVDLAKRTLKAQKLQEELASGKLVEQANSPKHQWGEEEPNSQMEKDHNSEDEDEDKYADDIDMPGQNFDSKRRITVRNLRIREDIAKYLRNLDPNSAYYDPKTRAMRENPYANAGKNPDEVSYAGDNFVRYTGDTISMAQTQLFAWEAYDKGSEVHLQADPTKLELLYKSFKVKKEDFKEQQKESILEKYGGQEHLDAPPAELLLAQTEDYVEYSRHGTVIKGQERAVACSKYEEDVKIHNHTHIWGSYWKEGRWGYKCCHSFFKYSYCTGEAGKEIVNSEECIINEITGEESVKKPQTLMELHQEKLKEEKKKKKKKKKKHRKSSSDSDDEEKKHEKLKKALNAEEARLLHVKETMQIDERKRPYNSMYETREPTEEEMEAYRMKRQRPDDPMASFLGQ

Target: the molecule itself
Assay: SEC-MALS (homodimer)
Excerpt: 14-3-3 dimerization can be regulated by phosphorylation of a serine residue at the dimer interface, e.g., serine residue 58 (Ser58).

Binder | binding result
B1 | binds

Target: T1, 14-3-3ζ nhpSer58 with a FLAG tag at its …
Assay: not given

Binder | FC [fold]
B2 | 0.0486
B3 | 0.0267
B4 | 0.0524
B5 | 0.0906
B6 | 0.0531
B7 | 0.0607
B8 | 0.0561
B9 | 0.0628
